38 variants from the Human Domainome abundance scans (Beltran et al. 2025) can be followed below.

B1: Far upstream element-binding protein 1, residues 98 to 169; numbered along this chain, Q96AE4 (parent)
chain: RSVMTEEYKVPDGMVGFIIGRGGEQISRIQQESGCKIQIAPDSGGLPERSCMLTGTPESVQSAKRLLDQIVE

± gives the uncertainty stated by the source.

In this data set the parent is B1. Briefly: abundance fitness (aPCA) (normalised: wild type 0, dead -1); higher = more abundant; growth selection in yeast, the domain comes from the species named. The note with it: Homo sapiens.
Consider RSVMTEEYKVPDGMVGFIIGRGGEQISRIQQESGCKIQIAPDSGILPERSCMLTGTPESVQSAKRLLDQIVE [G45I], for which the abundance fitness is -0.14 ± 0.057.
In the case of RSVMTEEYKVPDGMVGFIIGRGGEQISRIQQESGCKIQIAPDSGKLPERSCMLTGTPESVQSAKRLLDQIVE [G45K] it was -0.086 ± 0.042; in that of RSVMTEEYKVPDGMVGFIIGRGGEQISRIQQESGCKIQIAPDSGALPERSCMLTGTPESVQSAKRLLDQIVE [G45A], -0.046 ± 0.033.
With RSVMTEEYKVPDGMVGFIIGRGGEQISRIQQESGCKIQIAPDSGELPERSCMLTGTPESVQSAKRLLDQIVE [G45E], the abundance fitness was -0.023 ± 0.033.
Consider RSVMTEEYKVPDGMVGFIIGRGGEQISRIQQESGCKIQIAPDSGCLPERSCMLTGTPESVQSAKRLLDQIVE [G45C], for which the abundance fitness was -0.034 ± 0.045.
For the variant RSVMTEEYKVPDGMVGFIIGRGGEQISRIQQESGCKIQIAPDSGDLPERSCMLTGTPESVQSAKRLLDQIVE [G45D], the abundance fitness was -0.002 ± 0.036.
As for RSVMTEEYKVPDGMVGFIIGRGGEQISRIQQESGCKIQIAPNSGGLPERSCMLTGTPESVQSAKRLLDQIVE [D42N], the figure is -0.031 ± 0.044; as for RSVMTEEYKVPDGMVGFIIGRGGEQISRIQQESGCKIQIAPWSGGLPERSCMLTGTPESVQSAKRLLDQIVE [D42W], -0.089 ± 0.032.
For the variant RSVMTEEYKVPDGMVGFIIGRGGEQISRIQQESGCKIQIAPCSGGLPERSCMLTGTPESVQSAKRLLDQIVE [D42C], the abundance fitness was -0.015 ± 0.041.
As for RSVMTEEYKVPDGMVGFIIGRGGEQISRIQQESGCKIQIAPQSGGLPERSCMLTGTPESVQSAKRLLDQIVE [D42Q], the abundance fitness is -0.054 ± 0.038.
As to RSVMTEEYKVPDGMVGFIIGRGGEQISRIQQESGCKIQIAPYSGGLPERSCMLTGTPESVQSAKRLLDQIVE [D42Y], the abundance fitness was -0.113 ± 0.045.
Regarding RSVMTEEYKVPDGMVGFIIGRGGEQISRIQQESGCKIQIAPTSGGLPERSCMLTGTPESVQSAKRLLDQIVE [D42T], the abundance fitness was -0.053 ± 0.034.
Regarding RSVMTEEYKVPDGMVGFIIGRGGEQISRIQQESGCKIQIAPESGGLPERSCMLTGTPESVQSAKRLLDQIVE [D42E], the abundance fitness came to 0.014 ± 0.031.
Regarding RSVMTEEYKVPDGMVGFIIGRGGEQISRIQQESGCKIQIAPRSGGLPERSCMLTGTPESVQSAKRLLDQIVE [D42R], the abundance fitness is -0.027 ± 0.025.
Consider RSVMTEEYKVPDGMVGFIIGRGGEQISRIQQESGCKIQIAPISGGLPERSCMLTGTPESVQSAKRLLDQIVE [D42I], for which the abundance fitness was -0.085 ± 0.048.
With RSVMTEEYKVPDGMVGFIIGRGGEQISRIQQESGCKIQIAPHSGGLPERSCMLTGTPESVQSAKRLLDQIVE [D42H], the abundance fitness was -0.04 ± 0.053.
Consider RSVMTEEYKVPDGMVGFIIGRGGEQISRIQQESGCKIQIAPASGGLPERSCMLTGTPESVQSAKRLLDQIVE [D42A], for which the abundance fitness was -0.041 ± 0.028.
In the case of RSVMTEEYKVPDGMVGFIIGRGGEQISRIQQESGCKIQIAPSSGGLPERSCMLTGTPESVQSAKRLLDQIVE [D42S] it was -0.024 ± 0.029; in that of RSVMTEEYKVPDGMVGFIIGRGGEQISRIQQESGCKIQIAPMSGGLPERSCMLTGTPESVQSAKRLLDQIVE [D42M], -0.08 ± 0.035; in that of RSVMTEEYKVPDGMVGFIIGRGGEQISRIQQESGCKIQIAPFSGGLPERSCMLTGTPESVQSAKRLLDQIVE [D42F], -0.094 ± 0.052.
In the case of RSVMTEEYKVPDGMVGFIIGRGGEQISRIQQESGCKIQIAPPSGGLPERSCMLTGTPESVQSAKRLLDQIVE [D42P] it was 0.004 ± 0.038; in that of RSVMTEEYKVPDGMVGFIIGRGGEQISRIQQESGCKIQIAPLSGGLPERSCMLTGTPESVQSAKRLLDQIVE [D42L], -0.095 ± 0.029.
RSVMTEEYKVPDGMVGFIIGRGGEQISRIQQESGCKIQIAPKSGGLPERSCMLTGTPESVQSAKRLLDQIVE [D42K]: the abundance fitness is -0.026 ± 0.036.
For the variant RSVMTEEYKVPDGMVGFIIGRGGEQISRIQQESGCKIQIAPDNGGLPERSCMLTGTPESVQSAKRLLDQIVE [S43N], the abundance fitness is -0.043 ± 0.045.
For the variant RSVMTEEYKVPDGMVGFIIGRGGEQISRIQQESGCKIQIAPDKGGLPERSCMLTGTPESVQSAKRLLDQIVE [S43K], the abundance fitness is -0.091 ± 0.037.
As to RSVMTEEYKVPDGMVGFIIGRGGEQISRIQQESGCKIQIAPDMGGLPERSCMLTGTPESVQSAKRLLDQIVE [S43M], the abundance fitness was -0.087 ± 0.035.
For the variant RSVMTEEYKVPDGMVGFIIGRGGEQISRIQQESGCKIQIAPDRGGLPERSCMLTGTPESVQSAKRLLDQIVE [S43R], the abundance fitness was -0.086 ± 0.027.
For RSVMTEEYKVPDGMVGFIIGRGGEQISRIQQESGCKIQIAPDIGGLPERSCMLTGTPESVQSAKRLLDQIVE [S43I], the abundance fitness was -0.024 ± 0.044.
In the case of RSVMTEEYKVPDGMVGFIIGRGGEQISRIQQESGCKIQIAPDYGGLPERSCMLTGTPESVQSAKRLLDQIVE [S43Y] it was -0.124 ± 0.043; in that of RSVMTEEYKVPDGMVGFIIGRGGEQISRIQQESGCKIQIAPDPGGLPERSCMLTGTPESVQSAKRLLDQIVE [S43P], -0.234 ± 0.033; in that of RSVMTEEYKVPDGMVGFIIGRGGEQISRIQQESGCKIQIAPDCGGLPERSCMLTGTPESVQSAKRLLDQIVE [S43C], -0.131 ± 0.04.
Turning to RSVMTEEYKVPDGMVGFIIGRGGEQISRIQQESGCKIQIAPDTGGLPERSCMLTGTPESVQSAKRLLDQIVE [S43T], the abundance fitness was -0.037 ± 0.032.
On to RSVMTEEYKVPDGMVGFIIGRGGEQISRIQQESGCKIQIAPDGGGLPERSCMLTGTPESVQSAKRLLDQIVE [S43G], for which the abundance fitness is -0.066 ± 0.026.
For RSVMTEEYKVPDGMVGFIIGRGGEQISRIQQESGCKIQIAPDWGGLPERSCMLTGTPESVQSAKRLLDQIVE [S43W], the abundance fitness is -0.142 ± 0.037.
In the case of RSVMTEEYKVPDGMVGFIIGRGGEQISRIQQESGCKIQIAPDDGGLPERSCMLTGTPESVQSAKRLLDQIVE [S43D], the abundance fitness was -0.042 ± 0.047.
In the case of RSVMTEEYKVPDGMVGFIIGRGGEQISRIQQESGCKIQIAPDLGGLPERSCMLTGTPESVQSAKRLLDQIVE [S43L] it was -0.098 ± 0.03.
In the case of RSVMTEEYKVPDGMVGFIIGRGGEQISRIQQESGCKIQIAPDAGGLPERSCMLTGTPESVQSAKRLLDQIVE [S43A] it was -0.016 ± 0.03; in that of RSVMTEEYKVPDGMVGFIIGRGGEQISRIQQESGCKIQIAPDVGGLPERSCMLTGTPESVQSAKRLLDQIVE [S43V], -0.068 ± 0.029.
